US20240335555A1 (BIOHAVEN THERAPEUTICS, published 2024)

Key:
[1] = target: T1, SARS-CoV-2 (COVID-19) S Protein RBD, His Tag (SARS-CoV-2, UniProt P0DTC2 319-537); assay: ELISA, Spike RBD anchored on plate
[2] = target: T2, SARS-CoV2 Spike-GFP protein on 293T cells (SARS-CoV-2, UniProt P0DTC2 14-1273); assay: flow cytometry on 293T cells expressing Spike-GFP, % gated read-out
T2 construct: whole, on cells

[3] = target: T1, SARS-CoV-2 (COVID-19) S Protein RBD, …; assay: BLI (Octet), LCB1 binding to anchored Spike RBD

B1: I-27 (other)
peptide: NDDELLMLVTDLVAEALLFAKDEEIKKRVFTLFELADKAYKNNDRDTLSKVVSELKELLERLQSGGSEQKLISEEDLGSGGGGSLPET
notes: also called MATE agent I-27
[1]
  EC50: 4 nM

B2: I-26 (other)
peptide: DKEEILNKIYEIMRLLDELGNAEASMRVSDLILEFMKKGDERLLEEAERLLEEVERGGSEQKLISEEDLGSGGGGSLPET
notes: also called MATE agent I-26
[2]
  IC50: 1.3 nM

B3: I-24 (designed binder)
chain: DKEEILNKIYEIMRLLDELGNAEASMRVSDLILEFMKKGDERLLEEAERLLEEVERGGSEQKLISEEDLGSGGGGSLPETGGGGSGGSSHHHHHHHHHH
notes: also called P227; LCB1
[3]
  binding result: no binding
